From US20260234262A1

Biological target: Target 2 (canine examples 1 to 4) (canine)
Test: SPR, Biacore T200; antibody captured on anti-canine coupled CM5 chip, antigen in solution, 1:1 fit

Kd: 0.213 nM
koff: 6.24e-05 s⁻¹
kon: 293000 M⁻¹ s⁻¹
B1: 02F09R3-Fc (Fc fusion)
chain: QVQLVESGGGLVQAGGSLRLSCVASGSTFSNLVMAWYRQAPGKQREWVARISLAGNTIYADSVKGRFTISRDNAKNTVYLQMNSLKIEDTAVYYCSRGGVDWGQGTQVTVSSGPGGQVPKRENGRVPRPPDCPKCPAPEAAGGPSVFIFPPKPKDTLLIARTPEVTCVVVDLDPEDPEVQISWFVDGKQMQTAKTQPREEQFNGTYRVVSVLPIGHQDWLKGKQFTCKVNNKALPSPIERTISKARGQAHQPSVYVLPPSREELSKNTVSLTCLIKDFFPPDIDVEWQSNGQQEPESKYRTTPPQLDEDGSYFLYSKLSVDKSRWQRGDTFICYVMHEALHNHYTQESLSHSP
modifications: N-terminal pyroglutamate (PyroQ) observed by intact mass
